Data on six molecules can be found in publication PMC10397247.

The target in one assay is T1, Core_NINN-es_KKEK.
T1 chain: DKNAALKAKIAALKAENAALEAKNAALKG
The assay can be described thus: two-hybrid library CCmax.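 Also: natural log of median RNA to DNA barcode read ratio; higher means stronger binding.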 The following applies: mean of both orientations.

The target in the next assay is T2, 4H1072-bN.
T2 chain: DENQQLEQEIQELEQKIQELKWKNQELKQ
In words: two-hybrid library CCNG1.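 Also: natural log of median RNA to DNA barcode read ratio; higher means stronger binding.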

The next assay has as its target T3, 4H1046-bN.
T3 chain: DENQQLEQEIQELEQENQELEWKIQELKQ
The assay can be described thus: two-hybrid library CCNG1.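 Also: natural log of median RNA to DNA barcode read ratio; higher means stronger binding.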 The note with it: mean of both orientations.

Another assay addresses T4, 4H2745-bN.
T4 chain: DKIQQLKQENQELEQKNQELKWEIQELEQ
The assay can be described thus: two-hybrid library CCNG1.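 Also: natural log of median RNA to DNA barcode read ratio; higher means stronger binding.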

The next assay concerns the target T5, 4H3961-bN.
T5 chain: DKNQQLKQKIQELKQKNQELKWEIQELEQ
The assay can be described thus: two-hybrid library CCNG1.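 Also: natural log of median RNA to DNA barcode read ratio; higher means stronger binding.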 The note with it: mean of both orientations.

The target in a further assay is T6, 4H363-bN.
T6 chain: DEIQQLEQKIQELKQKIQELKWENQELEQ
In words: two-hybrid library CCNG1.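 Also: natural log of median RNA to DNA barcode read ratio; higher means stronger binding.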

The next assay addresses T7, 4H2568-bN.
T7 chain: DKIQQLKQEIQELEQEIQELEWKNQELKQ
In words: two-hybrid library CCNG1.

The target of another assay is T8, 4H3907-bN.
T8 chain: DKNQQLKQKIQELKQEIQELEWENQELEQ
In words: two-hybrid library CCNG1.

The next assay concerns the target T9, 4H2619-bN.
T9 chain: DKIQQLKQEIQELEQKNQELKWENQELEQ
The assay can be described thus: two-hybrid library CCNG1.

The next assay has as its target T10, 4H344-bN.
T10 chain: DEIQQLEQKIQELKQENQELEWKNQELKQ
The assay can be described thus: two-hybrid library CCNG1.

For a further assay, the target named is T11, 4H470-bN.
T11 chain: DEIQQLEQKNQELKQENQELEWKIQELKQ
The assay can be described thus: two-hybrid library CCNG1.

A further assay deals with T12, 4H40-bA.
T12 chain: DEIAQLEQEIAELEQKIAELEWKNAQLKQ
In words: two-hybrid library CCNG1.

In the next assay the target is T13, 4H2717-bA.
T13 chain: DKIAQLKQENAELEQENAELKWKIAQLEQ
In words: two-hybrid library CCNG1.

In the next assay the target is T14, 4H3057-bA.
T14 chain: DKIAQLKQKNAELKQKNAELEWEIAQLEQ
The assay can be described thus: two-hybrid library CCNG1.

The target in a further assay is T15, 4H2692-bA.
T15 chain: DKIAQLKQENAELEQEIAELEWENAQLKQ
The assay can be described thus: two-hybrid library CCNG1.

Another assay addresses T16, 4H2473-bA.
T16 chain: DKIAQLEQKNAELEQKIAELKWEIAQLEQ
The assay can be described thus: two-hybrid library CCNG1.

The next assay has as its target T17, 4H2588-bA.
T17 chain: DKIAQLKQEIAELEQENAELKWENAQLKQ
The assay can be described thus: two-hybrid library CCNG1.

For the next assay, the target named is T18, 4H348-bA.
T18 chain: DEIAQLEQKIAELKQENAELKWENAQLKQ
In words: two-hybrid library CCNG1.

Another assay has as its target T19, 4H492-bA.
T19 chain: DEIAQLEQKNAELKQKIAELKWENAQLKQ
The assay can be described thus: two-hybrid library CCNG1.

The next assay deals with T20, 4H2839-bA.
T20 chain: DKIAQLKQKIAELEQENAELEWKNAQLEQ
The assay can be described thus: two-hybrid library CCNG1.

Another assay deals with T21, 4H2438-bA.
T21 chain: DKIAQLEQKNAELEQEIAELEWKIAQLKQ
In words: two-hybrid library CCNG1.

The target in another assay is T22, 4H2143-bA.
T22 chain: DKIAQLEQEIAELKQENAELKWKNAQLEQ
The assay can be described thus: two-hybrid library CCNG1.

The target in a further assay is T23, 4H741-bA.
T23 chain: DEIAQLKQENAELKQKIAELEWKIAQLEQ
In words: two-hybrid library CCNG1.

The target in the next assay is T24, 4H319-bA.
T24 chain: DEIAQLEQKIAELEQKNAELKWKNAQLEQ
The assay can be described thus: two-hybrid library CCNG1.

The target in another assay is T25, 4H2503-bA.
T25 chain: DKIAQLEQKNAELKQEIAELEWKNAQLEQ
The assay can be described thus: two-hybrid library CCNG1.

The next assay concerns the target T26, 4H2223-bA.
T26 chain: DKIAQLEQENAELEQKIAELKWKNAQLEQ
In words: two-hybrid library CCNG1.

A further assay concerns the target T27, 4H2134-bA.
T27 chain: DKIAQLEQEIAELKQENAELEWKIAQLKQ
In words: two-hybrid library CCNG1.

A further assay has as its target T28, 4H477-bA.
T28 chain: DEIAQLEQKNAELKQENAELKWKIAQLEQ
In words: two-hybrid library CCNG1.

The target in a further assay is T29, 4H3277-bA.
T29 chain: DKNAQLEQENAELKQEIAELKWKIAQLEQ
In words: two-hybrid library CCNG1.

The target in another assay is T30, 4H121-bA.
T30 chain: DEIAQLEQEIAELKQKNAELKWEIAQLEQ
The assay can be described thus: two-hybrid library CCNG1.

Another assay has as its target T31, 4H182-bA.
T31 chain: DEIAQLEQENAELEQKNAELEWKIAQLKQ
The assay can be described thus: two-hybrid library CCNG1.

For the next assay, the target named is T32, 4H2915-bA.
T32 chain: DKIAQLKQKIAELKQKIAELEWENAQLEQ
The assay can be described thus: two-hybrid library CCNG1.

Another assay has as its target T33, 4H2444-bA.
T33 chain: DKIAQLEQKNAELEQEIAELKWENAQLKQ
In words: two-hybrid library CCNG1.

The target in a further assay is T34, P6p.
T34 chain: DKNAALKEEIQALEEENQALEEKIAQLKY
The assay can be described thus: two-hybrid library CCmax. The note with it: mean of both orientations.

For another assay, the target named is T35, O3-bA.
T35 chain: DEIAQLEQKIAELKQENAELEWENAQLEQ
In words: two-hybrid library CCNG1.

A further assay addresses T36, O15-bA.
T36 chain: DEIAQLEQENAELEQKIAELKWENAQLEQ
The assay can be described thus: two-hybrid library CCNG1.

For the next assay, the target named is T37, O2-bA.
T37 chain: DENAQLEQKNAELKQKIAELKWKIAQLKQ
The assay can be described thus: two-hybrid library CCNG1.

A further assay deals with T38, O10-bA.
T38 chain: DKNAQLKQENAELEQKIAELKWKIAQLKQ
The assay can be described thus: two-hybrid library CCNG1.

Another assay has as its target T39, O6-bA.
T39 chain: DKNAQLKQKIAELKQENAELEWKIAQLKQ
The assay can be described thus: two-hybrid library CCNG1.

Another assay deals with T40, O14-bA.
T40 chain: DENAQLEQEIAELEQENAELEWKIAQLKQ
The assay can be described thus: two-hybrid library CCNG1.

The target in another assay is T41, O4-bA.
T41 chain: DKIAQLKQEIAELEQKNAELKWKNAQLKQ
The assay can be described thus: two-hybrid library CCNG1.

The next assay concerns the target T42, O12-bA.
T42 chain: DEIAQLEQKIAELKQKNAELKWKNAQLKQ
In words: two-hybrid library CCNG1.

In another assay the target is T43, O8-bA.
T43 chain: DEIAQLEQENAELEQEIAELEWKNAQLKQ
The assay can be described thus: two-hybrid library CCNG1.

The next assay addresses T44, O16-bA.
T44 chain: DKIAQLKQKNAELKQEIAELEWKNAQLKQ
In words: two-hybrid library CCNG1.

A further assay addresses T45, O11-bA.
T45 chain: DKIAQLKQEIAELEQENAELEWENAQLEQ
The assay can be described thus: two-hybrid library CCNG1.

The next assay deals with T46, O13-bA.
T46 chain: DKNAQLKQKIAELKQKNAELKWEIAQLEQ
In words: two-hybrid library CCNG1.

A further assay has as its target T47, O5-bA.
T47 chain: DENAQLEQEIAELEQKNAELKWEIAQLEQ
In words: two-hybrid library CCNG1.

The target in another assay is T48, O9-bA.
T48 chain: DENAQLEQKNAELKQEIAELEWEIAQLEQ
The assay can be described thus: two-hybrid library CCNG1.

For another assay, the target named is T49, O1-bA.
T49 chain: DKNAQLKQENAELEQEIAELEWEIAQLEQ
The assay can be described thus: two-hybrid library CCNG1.

In another assay the target is T50, O7-bA.
T50 chain: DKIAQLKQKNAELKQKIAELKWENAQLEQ
In words: two-hybrid library CCNG1.

A further assay deals with T51, Core_NIII-es_KEEE.
T51 chain: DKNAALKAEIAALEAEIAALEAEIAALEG
The assay can be described thus: two-hybrid library CCmax. The note with it: mean of both orientations.

Take DENAALEAEIAALEAKNAALKAENAALEG [Core_NINN-es_EEKE]: the interaction score with Core_NINN-es_KKEK came to 1.78.

Consider DENQQLEQEIQELEQENQELEWKIQELKQ [4H1046-bN], for which the interaction score with 4H1072-bN was -0.367; with 4H1046-bN, -0.38; with 4H2745-bN, -0.112; with 4H3961-bN, 1.37; with 4H363-bN, -0.252; with 4H2568-bN, 0.836. For the same molecule, the interaction score in the assay with 4H3907-bN is -0.5; with 4H2619-bN it was -1.35; with 4H344-bN, 0.965; in the assay with 4H470-bN it was 0.0233.

As for DEIAQLEQEIAELKQKNAELKWEIAQLEQ [4H121-bA], the interaction score with 4H40-bA is -0.579; with 4H2717-bA it was -0.497; with 4H3057-bA, 0.0584; with 4H2692-bA it was -0.366; in the assay with 4H2473-bA, -1.11; in the assay with 4H2588-bA it was -0.283. Besides, the interaction score with 4H348-bA was -1.19; with 4H492-bA it was -1.44; with 4H2839-bA, 0.693; with 4H2438-bA it was 1.56; with 4H2143-bA, -0.624; with 4H741-bA, -1.09. Also, the interaction score is -1.51 with 4H319-bA; -1.32 with 4H2503-bA; 0.764 with 4H2223-bA; 1.92 with 4H2134-bA; -1.12 in the assay with 4H477-bA; -1.51 with 4H3277-bA. For the same molecule, the interaction score in the assay with 4H121-bA was -0.103; in the assay with 4H182-bA, -1.13; in the assay with 4H2915-bA it was -0.0952; with 4H2444-bA, -3.87.

DENAALEEKIAQLKQKNAALKEEIQALEY [P5p] registered an interaction score in the assay with P6p of 1.9.

As to DKNAQLKQENAELEQEIAELEWEIAQLEQ [O1-bA], the interaction score with O3-bA was -1.08; with O15-bA, -1.03; with O2-bA it was 2.31; with O10-bA it was 1.21; with O6-bA, -0.599; with O14-bA it was -1.02. Besides, the interaction score in the assay with O4-bA was -1.53; with O12-bA, -0.825; with O8-bA it was -1.59; in the assay with O16-bA, -0.581; with O11-bA, -1.05; with O13-bA it was 0.415. Moreover, the interaction score in the assay with O5-bA was -1.23; in the assay with O9-bA, -0.823; with O1-bA, -0.889; in the assay with O7-bA, -0.0848.

DENAALEAKIAALKAKIAALKAKIAALKG [Core_NIII-es_EKKK]: in the assay with Core_NIII-es_KEEE, the interaction score was 2.17.
